Laboratory results published in US11994512B2, “Single-cell genomic methods to generate ex vivo cell systems that recapitulate in vivo biology with improved fidelity” (Massachusetts Institute of Technology, priority 2018, dated 2024).

Tested on: intracellular proteome of ENR+CD and ENR organoids
Test: LC-MS/MS TMT proteomics of ENR+CD versus ENR organoids
Assay type: cell-based, C57BL/6 mice
Details: for change: up = enriched in ENR+CD, down = enriched in ENR, FDR<0.05 and log fold change cut-off
[1] = ENR+CD versus ENR organoids, sample pairs in aggregate (n=4, 2 technical replicates from two biological donors)
[2] = protein abundance ratio ENR+CD versus ENR organoids, sample pair M1-1, LC-MS/MS TMT proteomics
[3] = protein abundance ratio ENR+CD versus ENR organoids, sample pair M1-2, LC-MS/MS TMT proteomics
[4] = protein abundance ratio ENR+CD versus ENR organoids, sample pair M2-1, LC-MS/MS TMT proteomics
[5] = protein abundance ratio ENR+CD versus ENR organoids, sample pair M2-2, LC-MS/MS TMT proteomics

B1: Q3V3I2 (protein, UniProt Q3V3I2 1-354, looked up)
chain: MGSGISSESKESARRSKELEKKLQEDAERDARTVKLLLLGAGESGKSTIVKQMKIIHKNGYSKQECMEFKAVIYSNTLQSILAIVKAMATLGIDYVNPRSREDQEQLHSMANTLEDGDMTPQLAEIIKRLWGDPGIQACFERASEYQLNDSAAYYLNDLDRLTAPGYVPNEQDVLHSRVKTTGIIETQFSFKDLNFRMFDVGGQRSERKKWIHCFEGVTCIIFCAALSAYDMVLVEDEEVNRMHESLHLFNSICNHKYFATTSIVLFLNKKDLFQEKVAKVHLSICFPEYTGPNTFEDAGNYIKNQFLDLNLKKEDKEIYSHMTCATDTQNVKFVFDAVTDIIIKENLKDCGLF
modifications: full-length
B1 was tested, and the “Average logFC” value (protein abundance, ENR+CD versus ENR organoids, aggregate of the four sample pairs) was −1.949, the “M1-1 Log2 Median Normalized” value (protein abundance, ENR+CD versus ENR organoids, replicate M1-1, log2 ratio) was −1.715 and the “M1-2 Log2 Median Normalized” value (protein abundance, ENR+CD versus ENR organoids, replicate M1-2, log2 ratio) was −1.092. For the same molecule, the “M2-1 Log2 Median Normalized” value (protein abundance, ENR+CD versus ENR organoids, replicate M2-1, log2 ratio) was −2.2685, the “M2-2 Log2 Median Normalized” value (protein abundance, ENR+CD versus ENR organoids, replicate M2-2, log2 ratio) was −2.719 and the change was “down”.

B2: Q4VAH7 (protein, UniProt Q4VAH7 1-463, looked up)
chain: MGQDAFMELLRSMVGLSLCKIHLLLIAGSCLGLKVTVPSYTVHGIRGQALYLPVHYGFHTPASDIQIIWLFERSHTMPKYLLGSVNKSVVPDLEYQHKFTMMPPNASLLINPLQFTDEGNYIVKVNIQGNGTLSASQKIQVTVDDPVMKPMVQFHPASGAVEYVGNITLTCQVEGGTRLVYQWRKSGKPISINSSHSFSPQNNTLWIVPVTKEDIGNYTCLVSNPVSEMESDIIMPTIYYGPYGLQVNSDKGLKVGEVFTVDLGEAVLFDCSADSYPPNTYSWIQRSDNTTHVIKHGPHLEVASEKVAQKTADYVCCAYNNITGRRDETRFTVIITSVGLEKLAQRGKSLSPLASITGISLFLIISMCLLFLWKKYQPYKAIRQKLEGRPESEYRKAQTFSGHEDALSDFGIYEFVTFPDASGVSRMSSRSSPASDGVTGQDIHGTIYEVIQHIPEQQQENTE
modifications: full-length
For B2, the “Average logFC” value [1] was 1.418, the “M1-1 Log2 Median Normalized” value [2] was 1.047 and the “M1-2 Log2 Median Normalized” value [3] was 1.639. The “M2-1 Log2 Median Normalized” value [4] was 1.2475, the “M2-2 Log2 Median Normalized” value [5] was 1.739 and the change was “up”.

B3: Q4V9W2 (protein, UniProt Q4V9W2 1-153, looked up)
chain: MAVPGCNKDNVRAGCRKCGYPGHLTFECRNFLRVDPKRDIVLDVSSTSSEDSDEENEELNKLQALQEKRINEEEEKKKEKSREKIKLKKRRKRSYSSATEEDSAKQKKQKYQKKEKKKEKKNKSKKGKHHKKEKKKRKKEKRSSPYHSELTKK
modifications: full-length
For B3, the “Average logFC” value [1] was −1.36, the “M1-1 Log2 Median Normalized” value [2] was −1.902 and the “M1-2 Log2 Median Normalized” value [3] was −0.824. The “M2-1 Log2 Median Normalized” value [4] was −1.2515, the “M2-2 Log2 Median Normalized” value [5] was −1.464 and the change was “down”.
